± gives the uncertainty stated by the source.
B1: Transcription factor SOX-11, residues 50 to 117; numbered along this chain, P35716 (parent)
chain: KRPMNAFMVWSKIERRKIMEQSPDMHNAEISKRLGKRWKMLKDSEKIPFIREAERLRLKHMADYPDYK

Variants of: B1
Experiment: abundance fitness (aPCA) (normalised: wild type 0, dead -1); higher = more abundant; growth selection in yeast, the domain comes from the species named
Conditions: Homo sapiens

Variant	abundance fitness
F7I	-0.795 ± 0.1
F7D	-0.848 ± 0.13
F7T	-0.839 ± 0.12
F7C	-0.534 ± 0.098
F7V	-1.03 ± 0.14
F7N	-0.795 ± 0.09
F7K	-0.887 ± 0.21
P3D	0.525 ± 0.076
P3L	-0.118 ± 0.085
P3I	-0.279 ± 0.1
P3S	0.097 ± 0.062
P3Q	0.119 ± 0.21
P3N	0.199 ± 0.077
P3E	0.073 ± 0.18
P3V	-0.294 ± 0.086
P3F	-0.292 ± 0.12
P3R	-0.407 ± 0.077
P3K	-0.044 ± 0.18
P3T	-0.083 ± 0.076
P3M	-0.704 ± 0.45
P3H	-0.085 ± 0.077
S11N	-0.399 ± 0.14
S11Y	-0.267 ± 0.098
S11G	-0.283 ± 0.12

Variant	abundance fitness
S11P	-0.599 ± 0.2
S11V	-0.597 ± 0.15
S11D	-1.11 ± 0.25
S11T	-0.602 ± 0.2
S11L	-0.857 ± 0.18
S11H	-1.37 ± 0.45
S11F	-0.471 ± 0.096
S11I	-1.19 ± 0.27
S11C	-0.4 ± 0.1
S11R	-0.767 ± 0.21
I13P	-0.646 ± 0.11
I13H	-0.153 ± 0.078
I13C	-0.407 ± 0.067
I13K	-0.717 ± 0.23
I13W	-0.684 ± 0.15
I13N	-0.372 ± 0.059
I13T	-0.164 ± 0.064
I13V	-0.128 ± 0.054
I13E	-0.077 ± 0.14
I13G	-0.206 ± 0.059
I13M	-0.106 ± 0.098
I13F	-0.263 ± 0.059
I13Q	-0.06 ± 0.14
I13L	-0.237 ± 0.061

Variant	abundance fitness
I13S	-0.406 ± 0.056
I13R	-0.446 ± 0.062
I13A	-0.135 ± 0.068
K17T	-0.458 ± 0.093
K17L	-0.373 ± 0.078
K17M	-0.533 ± 0.21
K17H	-0.47 ± 0.08
K17P	-0.566 ± 0.13
K17S	-0.518 ± 0.067
K17Q	-0.199 ± 0.39
K17V	-0.6 ± 0.085
K17F	-0.531 ± 0.065
K17Y	-0.564 ± 0.075
K17W	-1.17 ± 0.34
K17A	-0.484 ± 0.096
K17N	-0.407 ± 0.061
K17I	-0.403 ± 0.065
K17C	-0.527 ± 0.075
K17G	-0.756 ± 0.1
R16Y	-0.372 ± 0.064
R16V	0 ± 0.054
R16P	-0.089 ± 0.1
R16M	-0.667 ± 0.21
R16D	-0.036 ± 0.075

Variant	abundance fitness
R16G	-0.105 ± 0.056
R16Q	0.199 ± 0.21
R16E	0.082 ± 0.15
R16S	-0.134 ± 0.049
R16L	-0.015 ± 0.065
R16W	-0.956 ± 0.4
R16F	-0.319 ± 0.058
R16T	-0.212 ± 0.075
R16H	-0.001 ± 0.069
R16I	0.002 ± 0.054
R16A	0.218 ± 0.062
R15V	-0.397 ± 0.077
R15I	-0.267 ± 0.072
R15P	-1.1 ± 0.33
R15A	-0.217 ± 0.091
R15E	0.101 ± 0.17
R15D	-1.11 ± 0.21
R15M	-0.142 ± 0.2
R15C	-0.384 ± 0.076
R15T	-0.073 ± 0.085
R15S	-0.154 ± 0.057
R15Y	-0.081 ± 0.07
R15G	-0.397 ± 0.065
R15L	-0.445 ± 0.092

Variant	abundance fitness
R15F	-0.601 ± 0.1
R15N	-0.527 ± 0.1
R15K	-0.151 ± 0.15
R15Q	-0.108 ± 0.18
E20R	-0.705 ± 0.12
E20Y	-0.781 ± 0.1
E20P	-0.812 ± 0.16
E20W	-0.577 ± 0.17
E20A	-0.348 ± 0.11
E20M	-0.723 ± 0.28
E20L	-0.27 ± 0.079
E20S	-0.36 ± 0.063
E20H	-0.319 ± 0.14
E20F	-0.496 ± 0.067
E20T	-0.185 ± 0.13
E20I	-0.569 ± 0.085
E20Q	-0.83 ± 0.34
E20N	-0.236 ± 0.08
Q21S	-0.172 ± 0.047
Q21Y	-0.581 ± 0.077
Q21N	-0.156 ± 0.056
Q21L	-0.353 ± 0.064
Q21I	-0.13 ± 0.056
Q21H	-0.194 ± 0.062

Variant	abundance fitness
Q21D	-0.267 ± 0.067
Q21W	-0.313 ± 0.15
Q21E	0.148 ± 0.13
Q21F	-0.661 ± 0.081
Q21V	-0.223 ± 0.055
Q21M	-0.35 ± 0.11
Q21P	-0.437 ± 0.13
Q21K	-0.303 ± 0.21
Q21G	-0.256 ± 0.057
Q21T	-0.13 ± 0.077
Q21C	-0.323 ± 0.055
Q21R	-0.235 ± 0.068
A6Y	-0.827 ± 0.096
A6Q	-1.05 ± 0.33
A6D	-0.751 ± 0.12
A6F	-0.987 ± 0.1
A6E	-0.338 ± 0.24
A6V	-0.629 ± 0.082
A6T	-0.767 ± 0.11
A6H	-0.553 ± 0.088
A6M	-0.831 ± 0.24
A6I	-0.934 ± 0.12
A6C	-0.634 ± 0.082
A6N	-0.976 ± 0.11

Variant	abundance fitness
A6G	-0.03 ± 0.06
A6L	-0.666 ± 0.087
A6P	-0.524 ± 0.11
A6R	-0.776 ± 0.17
A6S	-0.531 ± 0.068
A6W	-1.29 ± 0.34
S22K	-0.352 ± 0.19
S22I	-0.539 ± 0.066
S22T	-0.072 ± 0.064
S22E	-0.112 ± 0.11
S22V	-0.442 ± 0.064
S22M	-0.302 ± 0.12
S22H	0.052 ± 0.062
S22G	-0.587 ± 0.075
S22P	-0.841 ± 0.16
S22A	-0.061 ± 0.066
S22W	-0.024 ± 0.1
S22Y	0.165 ± 0.046
S22F	0.118 ± 0.049
S22R	-0.513 ± 0.091
S22D	0.042 ± 0.059
S22L	-0.522 ± 0.076
S22Q	-0.09 ± 0.14

— the Human Domainome abundance scans (Beltran et al. 2025)
